Test results as given in patent publication US20260125649A1, “MEDIUM COMPOSITION AND METHOD FOR CULTURING MESENCHYMAL STEM CELLS” (ACADEMIA SINICA, priority 2018, published 2026).

Legend:
Type in all cases: cell-based, human
[1] = test system: γ-secretase; assay: γ-secretase activity assay in MSC lysates; conditions: EpEX-stimulated MSCs
Method: (§1) FIG. 9. EpEX induces the phosphorylation and activity of TACE and γ-secretase. MSCs were stimulated by EpEX for the indicated times, and the activity of TACE and γ-secretase were detected. MSCs were stimulated by EpEX (3 μg/mL) for the indicated times. Western blot analysis was performed to detect the phosphorylation of TACE and Presenilin 2.
(§2) ADAM17 activity was measured using the InnoZyme ADAM17 activity kit (Calbiochem). In brief, cell lysates were harvested and loaded into a TACE antibody-coated plate. After 1 h incubation, the lysate was removed and the plate was washed twice. Substrate was added into each well for 5 h at 37° C. After incubation, the fluorescence signal of the reaction product was detected at excitation of 324 nm and emission of 405 nm. For the detection of γ-secretase activity, cell lysates were extracted and 500 μg protein was used. γ-secretase activity was detected by γ-secretase substrate (35 μM).

[2] = test system: TACE; assay: TACE activity assay in MSC lysates; conditions: EpEX-stimulated MSCs
Method: as §1, §2

[3] = test system: HMGA2; assay: HMGA2 expression and nuclear translocation (Western blotting, immunofluorescence, qPCR); conditions: EpEX 3 μg/mL
Method: MSCs were treated with EpEX (3 μg/mL), and the expression of HMGA2 was detected by immunofluorescence staining. […] To detect the binding of HMGA2 to Oct4 promoters, cross-linked DNA was isolated and then amplified with specific primers by qPCR. […] The gene expression of HMGA2 is detected by qPCR. MSCs were treated with let-7 mimetic and then treated with EpEX (3 μg/mL) for 12 h. The protein abundance of HMGA2 was examined by Western blotting.
Total RNA was extracted using TRI reagent (Invitrogen, CA, USA), and 5 μg of total RNA was reverse transcribed using oligo (dT) primer (Fermentas, Glen Burnie, MD, USA) with SuperScript III reverse transcriptase (Invitrogen). Quantitative real time RT-PCR (qPCR) was performed on cDNA using the Light Cycler 480 SYBR Green I Master kit (Roche Applied Science, Indianapolis, IN) and the LightCycler480 System (Roche Applied Science). The gene expression levels of each sample were normalized to the expression levels of glyceraldehyde 3-phosphate dehydrogenase (GAPDH).
Western blotting was performed as previously described (Takahashi et al., 2003). Cells were lysed in lysis buffer (150 mM NaCl, 50 mM Tris-HCl (pH 7.4), 1% Nonidet P-40), containing a protease inhibitor mix (Roche Applied Science). […]

[4] = test system: STAT3 (Tyr705); assay: STAT3 phosphorylation by Western blotting; conditions: MSCs treated with the substance
Method: After treatment, the protein levels of total STAT3 and phospho-STAT3 (Tyr705) were examined by Western blotting. […] Cell cycle progression was investigated by flow cytometry with PI staining. Fraction of cells in each phase (G1, S, G2/M) of the cell cycle was evaluated. Cells expressing STAT3 shRNA were treated with EpEX for 18 h, after which cell cycle progression was investigated by flow cytometry with PI staining. Fraction of cells in each phase (G1, S, G2/M) of the cell cycle was evaluated. […] The protein levels of cell cycle regulators (cyclin D1, cyclin D2, cyclin E1, CDK4 and CDK9) and pluripotency factors (Oct4, Sox2, c-Myc, Lin28) were examined by Western blotting. MSCs expressing STAT3 shRNA or shLuc were stimulated with EpEX. After treatment, the protein levels of cell cycle regulators (cyclin D1, cyclin D2, cyclin E1, CDK4 and CDK9) and pluripotency factors (Oct4, Sox2, c-Myc, and Lin 28) were examined by Western blotting. […] After treatment, the gene expression of pluripotency factors (Oct4, Sox2, c-Myc, Lin28 and EpCAM) was examined by qPCR.
FIG. 8. EpEX and EGF induce the phosphorylation of EGFR and STAT3. […] The phosphorylation of EGFR (Tyr845) and STAT3 (Tyr705) were examined by Western blotting with specific antibodies.
Western blotting was performed as previously described (Takahashi et al., 2003). […]

B1: EpEX: extracellular domain of human EpCAM, 265 amino acids in length (SEQ ID NO: 2) (protein, listed as Homo sapiens)
chain: MAPPQVLAFGLLLAAATATFAAAQEECVCENYKLAVNCFVNNNRQCQCTSVGAQNTVICSKLAAKCLVMKAEMNGSKLGRRAKPEGALQNNDGLYDPDCDESGLFKAKQCNGTSMCWCVNTAGVRRTDKDTEITCSERVRTYWIIIELKHKAREKPYDSKSLRTALQKEITTRYQLDPKFITSILYENNVITIDLVQNSSQKTQNDVDIADVAYYFEKDVKGESLFHSKKMDLTVNGEQLDLDPGQTLIYYVDEKAPEFSMQGLK
activation of γ-secretase [1]: induced
activation of TACE [2]: induced
level of HMGA2 [3]: induced
HMGA2 nuclear translocation ([3]; Western blotting and immunofluorescent staining): induced
STAT3 phosphorylation [4]: stimulates
